Substitutions are numbered along the chain they refer to.
B1: mAb8 (antibody, V domains shown)
VH: DVKLVESGGGLVKLGGSLKLSCAASGFTFSTDYMSWVRQSPEKRLELVAAINSNGGTTYYPDTVKGRFIISRDNAKNTLYLQMSSLRSEDTALYYCARQVKNGLDYWGQGTSVTVSS
VL: DIQMTQTTSSLSASLGDRVTISCRASQDISNYLNWYQQKPDGTVKLLIYKTSRLHSGVPSRFRGSGSGTDYSLTISNLEEEDVATYFCQQGNTLPPTFGGGTKLEIK
B2: mAb2 (antibody, V domains shown)
VH: B1 VH with K13N, T31S, S40I, I69T, R87K, V100G, L104M
VL: B1 VL with Y32H, K39R, K50Y, R63S, L73F, S76T, E79D, E80Q, V83I, N92K

Legend:
[1] = target: tetranectin (TN) of murine lung tissue (Mus musculus (lung tissue lysate), UniProt P43025); test: Western blot; conditions: one partner purified
Sequence of tetranectin (TN) of murine lung tissue (P43025 22-202): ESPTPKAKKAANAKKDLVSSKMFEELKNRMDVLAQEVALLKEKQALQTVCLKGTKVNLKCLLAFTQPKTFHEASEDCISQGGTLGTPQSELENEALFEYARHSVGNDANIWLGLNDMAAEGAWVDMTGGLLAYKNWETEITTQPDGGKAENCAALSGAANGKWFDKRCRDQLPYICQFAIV

[2] = target: recombinant receptor‐binding motif (RBM) of SARS‐CoV‐2 spike (S) protein, residue 437–508 (SARS-CoV-2, UniProt P0DTC2); test: SPR; conditions: both partners purified

Binder	binding result [1]	Kd [2]
B1	binds	17.4 nM
B2	binds	62.8 nM

Reference: paper PMC8251270 (Journal of Leukocyte Biology, 2021)
